Assay results: patent publication US7176293B1, “Compositions and methods to enhance sensitivity of cancer cells to mitotic stress” (The Wistar Institute of Anatomy and Biology, priority 1999, dated 2007)

Legend:
DLD1 cells [1] = test: Mitotic index of transiently-transfected DLD1 cells exposed to mitotic stress; type: cell-based, human; details: DLD1 cells co-transfected with wild-type Chfr
Method: (§1) Stable transfectants were prepared by transfecting DLD1 or U20S cells with 5 μg pSV2-HAchfr or pSV2-HAchfr-M580, or 5 μg pSV2 vector without insert and 1 μg pSV7neo plasmid [Wieczorek et al., supra] using Fugene-6 transfection reagent (Roche). Stably transfected cells were selected with G418. For transient expression, DLD1 or U20S cells were transfected with 5 μg pSV2-HAchfr or pSV2-HAchfrM580 or pSV2 plasmid without insert and 2 μg of a plasmid expressing green fluorescent protein using Fugene-6. SAOS2 cells were transfected as described above, except that the plasmids expressing Chfr were cotransfected with a plasmid expressing green fluorescent protein (GFP).
(§2) Cells were grown on 8-well culture slides coated with human fibronectin (Becton Dickinson) and were examined as either non-synchronized or synchronized cells. […] The slides were sealed with coverslips using Fluoromount-G (Upstate Biotechnology) and visualized with a fluorescence microscope (Leica). […]
About 50% of the cells expressed GFP, but the variable level of expression made it difficult to define a threshold above which a cell would be considered GFP-positive. Thus, to avoid any bias, the mitotic index was calculated for the entire cell population. […]

DLD1 and U20S cells = test: Mitotic index of stably transfected DLD1 and U20S cells in response to nocodazole; type: cell-based, human
Method: as §1, §2
To determine whether Chfr accounted for the different response, DLD1 and U20S cells were prepared to stably express HA-tagged wild-type Chfr or Chfr with the […] substitution (M580) or just the neo selectable marker. […] Furthermore, the different effects of wild-type Chfr and Chfr-M580 could not be attributed to differences in protein expression, as determined by immunoblotting. […]

Chfr = test: Ubiquitin-protein ligase assay in vitro; type: biochemical, human; details: crude bacterial lysates with E1, E2, ubiquitin and ATP; 20 minutes at 30° C.
Method: Recombinant E. coli bacterial cells that have been genetically engineered to express the E1 ubiquitin-activating enzyme and the E2 ubiquitin-conjugating enzyme (either UbchD2 or Ubch8) and a […] comprised of glutathione S-transferase fused to the N-terminus of Chfr were lysed. The lysates were incubated in the presence of ubiquitin and ATP and the reaction allowed to proceed for 20 minutes at 30° C. GST-Chfr was captured on glutathione beads, eluted with SDS sample buffer, and resolved by SDS-PAGE. The SDS gel was immunoblotted with antibodies that recognize ubiquitin. Reactions were performed with full-length Chfr fused to GST and reactions were performed with Chfr lacking amino acid residues 1–280 of SEQ ID NO: 2, which contain the FHA domain.

DLD1 cells [2] = test: Mitotic index of unsynchronized DLD1 cells stably expressing Chfr or Chfr-A325, exposed to nocodazole; type: cell-based, human; details: stably transfected unsynchronized DLD1 cells
From the text: To determine whether ubiquitin-protein ligase activity is required for checkpoint function, the Chfr mutant that substitutes Cys325 of the ring finger with Ala was stably-expressed in DLD1 cells. These cells were then exposed to mitotic stress and examined for entry into metaphase. The mitotic index of unsynchronized DLD1 cells exposed to nocodazole is high, indicating the absence of a checkpoint that would delay entry into metaphase in response to mitotic stress.

B1: Chfr-M580: chfr protein bearing a substitution of Val580 with Met (protein, UniProt Q96EP1 1-664, looked up, variant V580M)
E3 ubiquitin-protein ligase …: MERPEEGKQSPPPQPWGRLLRLGAEEGEPHVLLRKREWTIGRRRGCDLSFPSNKLVSGDHCRIVVDEKSGQVTLEDTSTSGTVINKLKVVKKQTCPLQTGDVIYLVYRKNEPEHNVAYLYESLSEKQGMTQESFEANKENVFHGTKDTSGAGAGRGADPRVPPSSPATQVCFEEPQPSTSTSDLFPTASASSTEPSPAGRERSSSCGSGGGGISPKGSGPSVASDEVSSFASALPDRKTASFSSLEPQDQEDLEPVKKKMRGDGDLDLNGQLLVAQPRRNAQTVHEDVRAAAGKPDKMEETLTCIICQDLLHDCVSLQPCMHTFCAACYSGWMERSSLCPTCRCPVERICKNHILNNLVEAYLIQHPDKSRSEEDVQSMDARNKITQDMLQPKVRRSFSDEEGSSEDLLELSDVDSESSDISQPYVVCRQCPEYRRQAAQPPHCPAPEGEPGAPQALGDAPSTSVSLTTAVQDYVCPLQGSHALCTCCFQPMPDRRAEREQDPRVAPQQCAVCLQPFCHLYWGCTRTGCYGCLAPFCELNLGDKCLDGVLNNNSYESDILKNYLATRGLTWKNMLTESLMALQRGVFLLSDYRVTGDTVLCYCCGLRSFRELTYQYRQNIPASELPVAVTSRPDCYWGRNCRTQVKAHHAMKFNHICEQTRFKN
DLD1 cells [1]
  dominant negative effect on wild-type Chfr: aid not act as a dominant negative mutant
DLD1 and U20S cells
  mitotic index in response to nocodazole: high mitotic index

B2: GST-Chfr: glutathione S-transferase fused to the N-terminus of full-length Chfr (protein)
chain: MERPEEGKQSPPPQPWGRLLRLGAEEGEPHVLLRKREWTIGRRRGCDLSFPSNKLVSGDHCRIVVDEKSGQVTLEDTSTSGTVINKLKVVKKQTCPLQTGDVIYLVYRKNEPEHNVAYLYESLSEKQGMTQESFEANKENVFHGTKDTSGAGAGRGADPRVPPSSPATQVCFEEPQPSTSTSDLFPTASASSTEPSPAGRERSSSCGSGGGGISPKGSGPSVASDEVSSFASALPDRKTASFSSLEPQDQEDLEPVKKKMRGDGDLDLNGQLLVAQPRRNAQTVHEDVRAAAGKPDKMEETLTCIICQDLLHDCVSLQPCMHTFCAACYSGWMERSSLCPTCRCPVERICKNHILNNLVEAYLIQHPDKSRSEEDVQSMDARNKITQDMLQPKVRRSFSDEEGSSEDLLELSDVDSESSDISQPYVVCRQCPEYRRQAAQPPHCPAPEGEPGAPQALGDAPSTSVSLTTAVQDYVCPLQGSHALCTCCFQPMPDRRAEREQDPRVAPQQCAVCLQPFCHLYWGCTRTGCYGCLAPFCELNLGDKCLDGVLNNNSYESDILKNYLATRGLTWKNMLTESLVALQRGVFLLSDYRVTGDTVLCYCCGLRSFRELTYQYRQNIPASELPVAVTSRPDCYWGRNCRTQVKAHHAMKFNHICEQTRFKN
modifications: left off: a dimerising Fc or GST
Chfr
  ubiquitin-protein ligase activity (ubiquitination of GST-Chfr): efficient ubiquitination

B3: Chfr-A325: Chfr mutant that substitutes Cys325 of the ring finger with Ala (protein, UniProt Q96EP1 1-664, looked up, variant C325A)
E3 ubiquitin-protein ligase …: MERPEEGKQSPPPQPWGRLLRLGAEEGEPHVLLRKREWTIGRRRGCDLSFPSNKLVSGDHCRIVVDEKSGQVTLEDTSTSGTVINKLKVVKKQTCPLQTGDVIYLVYRKNEPEHNVAYLYESLSEKQGMTQESFEANKENVFHGTKDTSGAGAGRGADPRVPPSSPATQVCFEEPQPSTSTSDLFPTASASSTEPSPAGRERSSSCGSGGGGISPKGSGPSVASDEVSSFASALPDRKTASFSSLEPQDQEDLEPVKKKMRGDGDLDLNGQLLVAQPRRNAQTVHEDVRAAAGKPDKMEETLTCIICQDLLHDCVSLQPCMHTFAAACYSGWMERSSLCPTCRCPVERICKNHILNNLVEAYLIQHPDKSRSEEDVQSMDARNKITQDMLQPKVRRSFSDEEGSSEDLLELSDVDSESSDISQPYVVCRQCPEYRRQAAQPPHCPAPEGEPGAPQALGDAPSTSVSLTTAVQDYVCPLQGSHALCTCCFQPMPDRRAEREQDPRVAPQQCAVCLQPFCHLYWGCTRTGCYGCLAPFCELNLGDKCLDGVLNNNSYESDILKNYLATRGLTWKNMLTESLVALQRGVFLLSDYRVTGDTVLCYCCGLRSFRELTYQYRQNIPASELPVAVTSRPDCYWGRNCRTQVKAHHAMKFNHICEQTRFKN
Chfr
  ubiquitin-protein ligase activity (ubiquitination of GST-Chfr): lacks ubiquitin-protein ligase activity
DLD1 cells [2]
  mitotic index after exposure to nocodazole: did not lead to a low mitotic index
